For two substances, plucking force results are on record in publication PMC5515574.

For experiment [1], the target named is mutant T238V yeast αβ-tubulin (T238V in Tub2p, β-tubulin) (yeast (S. cerevisiae)) (UniProt P09733). Kind of experiment: laser trap plucking force assay; bead tethered by a single anti-His antibody to the His6 tag of β-tubulin at the growing end of a coverslip-anchored microtubule; force ramp 0.25 pN s^-1 until detachment; only detachments followed at once by disassembly counted; removal of tubulin dimers from the microtubule end.

The target of experiment [2] is wild-type yeast αβ-tubulin with a His6 tag fused to the C-terminus of β-tubulin (yeast (S. cerevisiae)) (UniProt P09733). The description is as above.

For the substance “mutant T238V yeast αβ-tubulin (T238V in Tub2p, β-tubulin) (from UniProt P09733 1-447; P02557 1-457) (complex)”, the plucking force in experiment [1] was 19 pN.

Consider “wild-type yeast αβ-tubulin with a His6 tag fused to the C-terminus of β-tubulin (from UniProt P09733 1-447; P02557 1-457) (complex)”, for which the plucking force in experiment [2] stood at 8.3 pN.
